In US20230406924A1:
pKd: −log10 of the molar value.

Biological target: Mouse TREM-1 analyte (in house, his tagged) (mouse) (UniProt Q9JKE2)
Assay: SPR (Biacore T200, 25 C), MAB1187 captured on anti rat Fc, his tagged mouse TREM-1 as analyte, 1:1 model

Sequence of UniProt Q9JKE2 (Q9JKE2 21-202 limits assumed): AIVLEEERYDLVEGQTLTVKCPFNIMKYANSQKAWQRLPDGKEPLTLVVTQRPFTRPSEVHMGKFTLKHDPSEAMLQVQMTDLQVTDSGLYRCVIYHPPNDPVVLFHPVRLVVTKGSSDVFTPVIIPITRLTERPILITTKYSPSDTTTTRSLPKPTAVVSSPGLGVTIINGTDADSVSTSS

pKd: 7.59
koff: 0.0051 s⁻¹
kon: 200000 M⁻¹ s⁻¹
Substance: MAB1187, anti-mouse TREM1 monoclonal antibody (R&D Systems, clone 174031)
